Legend:
rae1l_rat Rae1 [1] = molecular target: rae1l_rat Rae1 (UniProt Q3SWS8)
rae1_caeel rae-1 = rae1_caeel rae-1 (UniProt Q93454)
rae1l_rat Rae1 [2] = molecular target: rae1l_rat Rae1 (UniProt Q3SWS8); remark: listed apart in the source

Chain of UniProt Q3SWS8 (Q3SWS8 whole entry): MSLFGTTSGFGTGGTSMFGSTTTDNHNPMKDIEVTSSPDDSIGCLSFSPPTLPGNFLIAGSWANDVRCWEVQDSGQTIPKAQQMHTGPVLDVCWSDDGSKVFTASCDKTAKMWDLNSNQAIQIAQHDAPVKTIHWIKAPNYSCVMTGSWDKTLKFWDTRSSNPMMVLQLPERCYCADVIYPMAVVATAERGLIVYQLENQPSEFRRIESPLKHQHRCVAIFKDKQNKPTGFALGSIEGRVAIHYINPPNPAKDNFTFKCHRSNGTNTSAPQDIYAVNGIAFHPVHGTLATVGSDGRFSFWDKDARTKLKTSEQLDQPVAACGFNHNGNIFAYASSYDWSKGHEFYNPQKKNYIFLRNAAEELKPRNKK
Chain of UniProt Q93454 (Q93454 whole entry): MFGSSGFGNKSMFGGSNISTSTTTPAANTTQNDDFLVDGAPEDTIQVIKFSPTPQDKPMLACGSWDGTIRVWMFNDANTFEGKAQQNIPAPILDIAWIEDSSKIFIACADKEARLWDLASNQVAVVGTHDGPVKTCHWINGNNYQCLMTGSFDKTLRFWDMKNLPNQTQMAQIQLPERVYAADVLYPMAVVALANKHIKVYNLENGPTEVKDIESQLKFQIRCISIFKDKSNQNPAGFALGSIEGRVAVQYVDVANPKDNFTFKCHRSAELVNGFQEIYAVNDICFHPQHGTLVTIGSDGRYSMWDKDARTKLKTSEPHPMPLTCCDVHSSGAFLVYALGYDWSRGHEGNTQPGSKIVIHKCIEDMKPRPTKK

Row | effect of a mutation on the interaction (rae1l_rat Rae1 [1]) | effect of a mutation on the interaction (rae1_caeel rae-1) | effect of a mutation on the interaction (rae1l_rat Rae1 [2]) | Substance
1 | disrupting interaction strength |  |  | E3 ubiquitin-protein ligase rpm-1 (Caenorhabditis elegans), Q17551 R2088A
2 | decreasing interaction strength | disrupting interaction strength | disrupting interaction strength | E3 ubiquitin-protein ligase rpm-1 (Caenorhabditis elegans), Q17551 V2084A;I2087A;R2088A

— IntAct's records for PubMed 22357847
